According to patent publication US11827911B2, “Chimeric bacteriophage lysin with activity against Staphylococci bacteria” (priority 2008, dated 2023):

Key:
[1] = test system: S. aureus strain 8325-4; test: ClyS activity as a function of pH and salt concentration; assay type: cell-based, Staphylococcus aureus; details: 50 U, 15 minutes
Description: The effect of pH on ClyS activity was determined as previously described using the universal buffer system pH 4-10 (Yoong et al). Briefly, log phase 8325-4 cells were resuspended in the universal buffer system and incubated with 50 U of ClyS for 15 minutes. The final pH of each reaction was checked by pH paper. The samples were serially diluted and plated. In controls, PB replaced ClyS.
Similarly the effect of salt concentration on the lytic activity of ClyS was determined by incubating 50 U of ClyS with log phase 8325-4 cells in PB containing NaCl at a final concentration of 25-500 mM for 15 minutes. The samples were serially diluted and plated to determine the viability counts.

[2] = test system: S. aureus 8325-4 cells; test: Transmission electron microscopy of the lytic effect; assay type: cell-based, Staphylococcus aureus; details: 50 U of ClyS for 1-3 min
Description: However, unlike other lysins, the sites of degradation on the cell was not restricted to the septal or polar positions but was randomly distributed.
S. aureus strain 8325-4 was grown to log-phase, centrifuged and resuspended in PBS to an absorbance at 600 nm of 1.0. The bacterial suspension was incubated with 50 U of ClyS at room temperature. […] The suspension was pelleted by centrifugation and overlaid with 2.5% glutaraldehyde in 0.1 M cacodylate buffer (pH 7.4). The samples were then postfixed in 1% osmium tetroxide, block stained with uranyl acetate and processed according to standard procedures by The Rockefeller University Electron Microscopy Service.

[3] = test system: MRSA (191-SM^R); test: In vivo nasal decolonization of MRSA; parameters: species or system C57BL/6J mice; details: three hourly intranasal doses of ClyS (960 μg) 24 h post-infection; 1 h after last treatment; p<0.001 vs buffer
Description: Carriage of both MSSA and MRSA in the human anterior nares is the major reservoir for S. aureus infection. Studies have shown that roughly 80% of the population could be nasally colonized by S. aureus, and that colonization can be an increased risk factor for developing other more serious S. aureus infections (Kluytmans, J., A. van Belkum. 1997. Nasal carriage of Staphylococcus aureus: epidemiology, underlying mechanisms, and associated risks. Clin Microbiol Rev 10(3): 505-20). Elimination of nasal carriage in the community or in the hospital setting thus could possibly reduce the risk of infection and slow the spread of drug resistant S. aureus (Kluytmans et al. (1997)). To study the potential of ClyS to reduce MRSA colonization of the nasal mucosa, C57BL/6J mice were intranasally inoculated with ˜2×10^7 of a spontaneously streptomycin resistant strain of MRSA (191-SM^R). Twenty-four hours post-infection mice were administered three doses hourly of either phosphate buffered saline (control) or ClyS (960 μg) into the nasal passages. One hour after the last treatment, mice were sacrificed and bacteria colonies were enumerated on Spectra MRSA agar, (a selective chromogenic medium developed to diagnostically detect MRSA nasal colonization) and Columbia blood agar. […]

[4] = test system: S. aureus strains (MSSA and MRSA); test: Muralytic activity on bacterial strains, Set I; assay type: cell-based, Staphylococcus aureus; details: 50 U of ClyS, 15 minutes
Description: Muralytic activity of ClyS was tested on a number of bacterial strains representing a variety of species which were divided into sets (Table 1 and FIG. 10). Set I consisted of S. aureus strains including methicillin-sensitive S. aureus (MSSA) and MRSA. ClyS was active against MSSA and MRSA although differences were observed between S. aureus strains. Set II consisted of different species of staphylococci including S. epidermidis, S. simulans and S. sciuri. […] Set III consisted of a mix of Gram-positive and Gram-negative bacteria including representatives of group A, B, C and E streptococci, oral streptococcal species including S. gordonli, and S. salivarius, as well as S. uberis, Bacillus cereus, Pseudomonas aeruginosa and E. coli.
The viability assay of ClyS was tested as previously described (Nelson et al, 2001). Briefly, log phase cultures of S. aureus strain 8325-4 were resuspended in PB to OD600 of 0.8-1.0. 50 U of ClyS or the corresponding volume of PB was added to bacterial cells and aliquots were removed, serially diluted, and plated at 1, 5, 10, 30, and 60 minutes to assess the viability of the treated and control cells. All experiments were performed in triplicate. The activity of ClyS on various bacterial strains was tested as described previously (Schuch et al, 2002). Briefly, log phase bacterial cells were treated with 50 U of ClyS at 37° C. for 15 minutes. […]

[5] = test system: MRSA strain MW2; test: Systemic MRSA infection model, survival; assay type: in vivo, FVB/NJ mice
Description: In order to assess whether ClyS treatment could prevent death resulting from systemic MRSA infections, 4 week old FVB/NJ mice were intraperitoneally injected with ˜5×10^5 CFU of the community-acquired MRSA strain MW2 in 5% mucin. Preliminary experiments determined that 5×10^5 CFU was 10× the LD100 dose for a twenty-four hour period. Furthermore, within 3 hours of IP injection the MRSA infection was systemic. i.e., MRSA were recovered in high numbers from heart, liver, spleen, and kidney (data not shown). Treatment occurred three hours post-infection, with either 20 mM phosphate buffer or 1 mg of ClyS in 20 mM phosphate buffer injected IP (intraperitoneally). Mice were then monitored for survival over ten days. The results from three independent experiments were combined (ClyS treatment, n=16; buffer treatment, n=14) and the mice survival data plotted with a Kaplan Meier Survival curve (FIG. 12), Within twenty-four hours all of the control mice died of bacterial sepsis, while only 2/16 of ClyS treated mice died at forty-eight hours, and the remaining mice (14/16, 88%) survived over the course of the experiments (FIG. 12).
To determine if this effect could be seen in our systemic MRSA infection model, FVB/NJ mice were intraperitoneally injected with ˜5×10^5 CFUs of the MRSA strain MW2 as above. Three hours post infection mice were treated in parallel, with a lower IP dose of 130 μg/mouse of ClyS combined with different concentrations of oxacillin (10-100 μg/mouse) or buffer alone controls. Preliminary experiments determined that an ED30 dose of ClyS (130 μg/mouse) had minimal efficacy to evaluate the effect of combinatorial treatment with oxacillin (data not shown). Mice were monitored for survival for 10 days and the results of 5 independent experiments were combined and plotted in a Kaplan Meier Survival curve (FIG. 14).

B1: ClyS: chimeric lysin: Twort lysin endopeptidase domain attached to the phiNM3 CWT domain, 280 amino acid residues (protein)
chain: METLKQAESYIKSKVNTGTDFDGLYGYQCMDLAVDYIYHVTDGKIRMWGNAKDAINNSFGGTATVYKNYPAFRPKYGDVVVWTTGNFATYGHIAIVTNPDPYGDLQYVTVLEQNWNGNGIYKTELATIRTHDYTGITHFIRPNFATESSVKKKDTKKKPKPSNRDGLNKDKIVYDRTNINYNMVLQGKSASKITVGSKAPYNLKWSKGAYFNAKIDGLGATSATRYGDNRTNYRFDVGQAVYAPGTLIYVFEIIDGWCRIYWNNHNEWIWHERLIVKEVF
modifications: Chimeric of Staphylococcus aureus bacteriophage Twort domain and Staphylococcus aureus phage phiNM3 CWT domain
notes: chimeric lysin: Twort lysin endopeptidase domain attached to the phiNM3 CWT domain, 280 amino acid residues
[1]
  activity at physiological pH: partial yet significant activity
  activity at physiological salt concentrations: functioned well
[1]; 25-500 mM NaCl in PB
  NaCl concentration above which activity deteriorated: above 400 mM
[2]
  lytic effect seen by transmission electron microscopy: localized degradation of the cell wall
[3]
  mean CFU on the nasal mucosa: 1198 CFU/cavity
[4]
  muralytic activity against MRSA: active
  muralytic activity against MSSA: active
[5]; 130 μg/mouse of ClyS IP alone, 10 days
  survival: 30%
[5]; 1 mg of ClyS IP three hours post-infection
  mice died at forty-eight hours: 2/16
[5]; 1 mg of ClyS IP three hours post-infection, ten days
  survival over the course of the experiments: 88%
[5]; IP, preliminary experiments
  ED30 dose: 130 μg/mouse
